In the supplement of paper PMC6757056:
± gives the standard deviation of the averaged measurements.

B1: library; a variant is named by its letters at N, in order (parent)
chain: GCUGUCACCGGUGUAUUACCCUAGUGGUCGACCGGUCUGAUGAGUCUNNNNNNAGACGAAACAGC

Columns and labels:
hypoxanthine [1] = variants of: B1; experiment: normalized RNA/DNA level with ligand (relative to sTRSVctl = 100) (log10 (% of sTRSVctl)); ligand: hypoxanthine (xanthine aptamer); higher = less ribozyme self-cleavage, higher mRNA level; settings: ligand concentration (+) RNA-Seq: 5 mM, HEK293T, reporter: mCherry (pCS4076), ligand present: yes
Procedure, shortened: (§1)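 Ribozyme switch library plasmids linked to reporters were introduced into HEK293T cells at 4 µg per 6-well well, with ligand, if any, added 1 h before. Total RNA was extracted with EDTA 72 h later, reverse-transcribed, amplified, barcoded and sequenced. RNA level was computed from RNA over DNA reads relative to a spiked-in non-cleaving sequence or the top sequences, then scaled and log-transformed. The top set was 25 sequences, values were ×100 and log10, and the cutoff was ≥100 DNA reads.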

hypoxanthine [2] = variants of: B1; experiment: normalized RNA/DNA level without ligand (relative to sTRSVctl = 100) (log10 (% of sTRSVctl)); ligand: hypoxanthine (xanthine aptamer); higher = less ribozyme self-cleavage, higher mRNA level; settings: HEK293T, reporter: mCherry (pCS4076), ligand present: no
Procedure, shortened: as §1

Row | Variant | normalized RNA/DNA level with ligand (log10) (hypoxanthine [1]) | normalized RNA/DNA level without ligand (log10) (hypoxanthine [2])
1 | UGGGCC | 1.96 ± 0.04 | 2.019 ± 0.012
2 | CGGACU | 1.95 ± 0.042 | 1.79 ± 0.024
3 | CGGACG | 2.01 ± 0.03 | 1.72 ± 0.043
4 | CGGACC | 1.94 ± 0.037 | 1.94 ± 0.049
5 | UGGAAG | 1.871 ± 0.018 | 1.556 ± 0.01
6 | UGGAAA | 1.91 ± 0.02 | 1.7 ± 0.039
7 | UGGAAC | 1.89 ± 0.032 | 1.78 ± 0.034
8 | GGGUGU | 1.9307 ± 0.0015 | 1.81 ± 0.062
9 | GGGCUU | 1.98 ± 0.069 | 1.96 ± 0.029
10 | GGGCUC | 1.9567 ± 0.00028 | 2 ± 0.093
11 | GGUAGA | 1.894 ± 0.015 | 1.41 ± 0.058
12 | AGGCUU | 1.968 ± 0.014 | 1.89 ± 0.043
13 | AGGCUC | 2.02 ± 0.024 | 2.01 ± 0.055
14 | CGCUUG | 1.91 ± 0.07 | 1.93 ± 0.076
15 | CGCUUA | 1.861 ± 0.0029 | 1.7 ± 0.036
16 | CGCUUU | 1.911 ± 0.01 | 1.859 ± 0.009
17 | CGCUUC | 1.996 ± 0.0043 | 1.92 ± 0.14
18 | GGGCAC | 1.9407 ± 0.0014 | 1.879 ± 0.012
19 | GGGCGU | 2 ± 0.0057 | 1.96 ± 0.049
20 | GGGCGC | 1.929 ± 0.013 | 1.7 ± 0.032
21 | GGGCGA | 1.99 ± 0.057 | 1.88 ± 0.038
22 | UGUACG | 1.929 ± 0.01 | 1.83 ± 0.044
23 | UGUACC | 2 ± 0.033 | 1.92 ± 0.023
24 | UGUAUC | 1.94 ± 0.052 | 1.92 ± 0.013

Row | Variant | normalized RNA/DNA level with ligand (log10) (hypoxanthine [1]) | normalized RNA/DNA level without ligand (log10) (hypoxanthine [2])
25 | UGUAUA | 1.97 ± 0.029 | 1.866 ± 0.0081
26 | GGUAUC | 1.957 ± 0.017 | 1.82 ± 0.013
27 | GGUAUA | 1.92 ± 0.074 | 1.83 ± 0.024
28 | CGGUAC | 1.88 ± 0.03 | 1.54 ± 0.084
29 | GGCUUC | 1.99 ± 0.03 | 1.98 ± 0.041
30 | GGCUUU | 2.025 ± 0.0095 | 1.982 ± 0.006
31 | GGCUUA | 1.967 ± 0.014 | 1.88 ± 0.025
32 | GGCUUG | 1.93 ± 0.071 | 1.66 ± 0.04
33 | UGGCGU | 1.961 ± 0.015 | 1.68 ± 0.064
34 | UGGCGG | 1.97 ± 0.14 | 1.69 ± 0.024
35 | UGGCGC | 2 ± 0.04 | 2 ± 0.027
36 | CGGGUC | 2.01 ± 0.05 | 1.946 ± 0.017
37 | CGGGUG | 1.893 ± 0.013 | 1.7 ± 0.05
38 | GGUACC | 1.94 ± 0.067 | 1.921 ± 0.016
39 | GGUACA | 1.94 ± 0.03 | 1.796 ± 0.0062
40 | AGGAUU | 1.934 ± 0.0076 | 1.83 ± 0.075
41 | AGGAUC | 1.99 ± 0.046 | 1.944 ± 0.013
42 | UGGUCU | 1.91 ± 0.028 | 1.91 ± 0.025
43 | UGGUCC | 1.98 ± 0.035 | 1.93 ± 0.039
44 | AGCUGU | 1.938 ± 0.0047 | 1.75 ± 0.028
45 | GGCUAG | 1.812 ± 0.005 | 1.54 ± 0.039
46 | GGCUAU | 1.953 ± 0.0089 | 1.876 ± 0.005
47 | GGCUAC | 1.933 ± 0.0082 | 1.79 ± 0.093
48 | GGCUAA | 1.94 ± 0.046 | 1.86 ± 0.017

Row | Variant | normalized RNA/DNA level with ligand (log10) (hypoxanthine [1]) | normalized RNA/DNA level without ligand (log10) (hypoxanthine [2])
49 | CGCUAA | 1.91 ± 0.061 | 1.71 ± 0.028
50 | CGCUAC | 1.86 ± 0.041 | 1.74 ± 0.074
51 | CGCUAU | 1.91 ± 0.092 | 1.78 ± 0.028
52 | CGGCAA | 1.88 ± 0.024 | 1.529 ± 0.011
53 | CGGCAC | 1.923 ± 0.016 | 1.733 ± 0.0076
54 | GGGAUC | 1.94 ± 0.075 | 1.861 ± 0.018
55 | GGGAUA | 1.95 ± 0.053 | 1.69 ± 0.0074
56 | GGGAUU | 1.9914 ± 0.00078 | 1.817 ± 0.014
57 | GGGGUC | 1.94 ± 0.025 | 1.84 ± 0.03
58 | GGGGUG | 1.95 ± 0.027 | 1.562 ± 0.0074
59 | GGGGUU | 1.98 ± 0.037 | 1.96 ± 0.034
60 | CGUAUG | 1.91 ± 0.035 | 1.84 ± 0.0095
61 | CGUAUC | 1.93 ± 0.07 | 1.902 ± 0.018
62 | CGUAUU | 1.96 ± 0.026 | 1.732 ± 0.015
63 | UGUAGC | 1.94 ± 0.046 | 1.796 ± 0.0085
64 | UGUAGU | 1.88 ± 0.029 | 1.5 ± 0.071
65 | UGUAGG | 1.895 ± 0.002 | 1.5 ± 0.015
66 | AGGACA | 1.89 ± 0.066 | 1.71 ± 0.042
67 | GGGGAC | 1.91 ± 0.068 | 1.613 ± 0.0032
68 | GGGGAU | 1.895 ± 0.015 | 1.749 ± 0.0068
69 | AGUAUG | 1.824 ± 0.017 | 1.39 ± 0.043
70 | AGUAUC | 1.96 ± 0.044 | 1.931 ± 0.013
71 | UGCUGU | 1.95 ± 0.0027 | 1.92 ± 0.03
72 | UGCUGG | 1.95 ± 0.04 | 1.707 ± 0.011

Row | Variant | normalized RNA/DNA level with ligand (log10) (hypoxanthine [1]) | normalized RNA/DNA level without ligand (log10) (hypoxanthine [2])
73 | UGCUGC | 1.972 ± 0.011 | 1.958 ± 0.006
74 | AGGUCU | 1.95 ± 0.028 | 1.813 ± 0.013
75 | AGGUCC | 1.962 ± 0.017 | 1.856 ± 0.0097
76 | CGUAGA | 1.958 ± 0.0094 | 1.8 ± 0.021
77 | CGUAGG | 1.808 ± 0.0097 | 1.334 ± 0.0095
78 | CGUAGC | 1.9509 ± 0.00084 | 1.875 ± 0.0047
79 | CGUAGU | 1.99 ± 0.086 | 1.87 ± 0.037
80 | GGCUGA | 2.01 ± 0.032 | 1.87 ± 0.026
81 | GGCUGU | 1.96 ± 0.025 | 1.95 ± 0.046
82 | GGCUGC | 1.92 ± 0.048 | 1.58 ± 0.039
83 | GGCUGG | 1.9543 ± 0.0009 | 1.66 ± 0.048
84 | AGGGGA | 1.908 ± 0.015 | 1.61 ± 0.053
85 | AGGGGU | 1.855 ± 0.0023 | 1.61 ± 0.032
86 | UGGCAC | 2 ± 0.034 | 1.913 ± 0.019
87 | UGGCAA | 1.917 ± 0.015 | 1.77 ± 0.03
88 | GGCUCG | 1.98 ± 0.027 | 1.834 ± 0.012
89 | GGCUCC | 1.989 ± 0.014 | 1.898 ± 0.018
90 | GGCUCU | 2.03 ± 0.066 | 1.99 ± 0.064
91 | CGGUUU | 1.935 ± 0.017 | 1.791 ± 0.015
92 | CGGUUA | 1.89 ± 0.11 | 1.52 ± 0.045
93 | CGGUUG | 1.97 ± 0.072 | 1.88 ± 0.062
94 | AGGCGA | 1.92 ± 0.066 | 1.557 ± 0.0027
95 | AGGCGC | 1.962 ± 0.0082 | 1.87 ± 0.031
96 | UGGGAG | 1.9 ± 0.054 | 1.55 ± 0.044

Row | Variant | normalized RNA/DNA level with ligand (log10) (hypoxanthine [1]) | normalized RNA/DNA level without ligand (log10) (hypoxanthine [2])
97 | UGGGAU | 1.938 ± 0.014 | 1.71 ± 0.02
98 | UGGGAA | 1.86 ± 0.054 | 1.64 ± 0.036
99 | UGGGAC | 1.897 ± 0.018 | 1.83 ± 0.044
100 | CGCUGG | 1.889 ± 0.0061 | 1.42 ± 0.024
101 | CGCUGU | 1.94 ± 0.06 | 1.9375 ± 0.00087
102 | AGGGUG | 1.886 ± 0.012 | 1.54 ± 0.09
103 | AGGUGG | 1.83 ± 0.021 | 1.391 ± 0.011
104 | AGGUGC | 1.93 ± 0.051 | 1.68 ± 0.04
105 | AGGUGU | 1.92 ± 0.028 | 1.49 ± 0.098
106 | UGGUAU | 1.907 ± 0.0077 | 1.707 ± 0.017
107 | UGGUAA | 1.902 ± 0.013 | 1.712 ± 0.011
108 | UGGUAG | 1.88 ± 0.028 | 1.55 ± 0.011
109 | UGGUAC | 1.98 ± 0.088 | 1.85 ± 0.041
110 | CGGUGC | 1.96 ± 0.052 | 1.8 ± 0.051
111 | CGGUGA | 1.93 ± 0.042 | 1.57 ± 0.042
112 | CGGUGG | 1.862 ± 0.011 | 1.37 ± 0.032
113 | CGGCGU | 1.929 ± 0.017 | 1.91 ± 0.06
114 | CGGCGA | 1.95 ± 0.029 | 1.743 ± 0.017
115 | CGGCGC | 2.005 ± 0.013 | 1.93 ± 0.064
116 | CGGCGG | 1.889 ± 0.0076 | 1.48 ± 0.11
